Key:
[1] = test system: mouse bone marrow mesenchymal stem cell line (MSC-1 cells), PDGFRα-positive; assay: Migration assay (Boyden / 48-well chemotaxis chamber) on bone marrow mesenchymal stem cell line MSC-1; type: cell-based; settings: for migration-promoting activity per equal mass, 2-215 taken as 1 / migration-promoting activity per molar concentration, 2-215 taken as 1: FIGS. 18C and 18D
Procedure: Cells of a mouse bone marrow mesenchymal stem cell line (MSC-1 cells, established by Tamai et al. of Osaka University (PDGFRα-positive cells in bone marrow are mobilized by high mobility group box 1 (HMGB1) to regenerate injured epithelia. (Tamai et al., Proc Natl Acad Sci USA. Apr. 4, 2011))) were detached from dishes using trypsin, and collected by centrifugation at 1200 rpm and 4° C. for 10 minutes. The resulting pellet was loosened and suspended at a cell concentration of 2.0×10^6 to 3.0×10^6 cells/ml by adding Dulbecco's Modified Eagle Medium (D-MEM) containing 10% fetal bovine serum (FBS). The recombinant protein and peptides produced in HEK293 were diluted with D-MEM containing 10% FBS. The negative control used was phosphate buffered saline (PBS). An acrylic Boyden chamber was used; cells of the mouse bone marrow mesenchymal stem cell line prepared at a cell concentration of 3×10^6 cells/ml were placed in its upper layer, while a diluted protein or peptide is added to the bottom layer. More specifically, a 28 μl aliquot of a protein or peptide solution was added to each well of the bottom plate of a 48-well chemotaxis chamber (NEURO PROBE 48WELL CHEMOTAXIS CHAMBER), and a polycarbonate membrane with 8 μm pores (Neuro Probe, Inc, Cat: 866-417-0014) was placed on the bottom plate. Then, an upper plate was placed on the membrane and screwed tightly. 50 μl of cells of the mouse bone marrow mesenchymal stem cell line after concentration adjustment were added to the upper plate wells. The chamber was placed in an incubator under 5% CO2 at 37° C. After four hours, the membrane was removed from the chamber and stained with Diff-Quik (Sysmex, Cat: 16920) to detect cells that migrated through membrane pores to the lower compartment.
The peptides listed below were custom synthesized using the solid phase method by Medical & Biological Laboratories (MBL). The peptides were synthesized based on the mouse HMGB1 sequence (SEQ ID NO: 3). Synthetic peptides described in subsequent Examples were also prepared based on the mouse HMGB1 sequence. • A synthetic peptide consisting of the amino acid sequence from positions 1 to 10 of HMGB1 (1-10); • a synthetic peptide consisting of the amino acid sequence from positions 1 to 34 of HMGB1 (1-34); • a synthetic peptide consisting of the amino acid sequence from positions 37 to 62 of HMGB1 (37-62); • a synthetic peptide consisting of the amino acid sequence from positions 27 to 62 of HMGB1 (27-62); • a synthetic peptide consisting of the amino acid sequence from positions 56 to 72 of HMGB1 (56-72); • a synthetic peptide consisting of the amino acid sequence from positions 11 to 20 of HMGB1 (11-20); • a synthetic peptide consisting of the amino acid sequence from positions 11 to 25 of HMGB1 (11-25); • a synthetic peptide consisting of the amino acid sequence from positions 11 to 30 of HMGB1 (11-30); • a synthetic peptide consisting of the amino acid sequence from positions 11 to 34 of HMGB1 (11-34); • a synthetic peptide consisting of the amino acid sequence from positions 11 to 44 of HMGB1 (11-44); • a synthetic peptide consisting of the amino acid sequence from positions 17 to 44 of HMGB1 (17-44); • a synthetic peptide consisting of the amino acid sequence from positions 1 to 25 of HMGB1 (1-25); and the whole mouse HMGB1 produced in HEK293 (1-215(HEK)) as a positive control were adjusted to 100 μg/ml and placed in the lower layer of a chemotaxis chamber to assess the migration-promoting activity on bone marrow mesenchymal stem cell line (MSC-1). Results
As positive controls, centrifuged supernatant of the skin of a one-day-old mouse (one individual) incubated in PBS at 4° C. for 12 hours, and the whole mouse HMGB1 (HMGB1(HEK_1-215)) produced in HEK293 were used. […]

[2] = test system: human-derived bone marrow mesenchymal stem cells (hMSC); assay: Migration assay on human-derived bone marrow mesenchymal stem cells; type: cell-based; settings: human HMGB1 fragments produced in E. coli, 2 μM, FIG. 21B
From the text: Human HMGB1 fragments (2-215, 2-84, 2-44, 45-84, 85-169, 89-185, 89-195, and 89-205) were produced in E. coli and purified using appropriate columns in the same manner as described in Examples 14, 15, and 16 above. However, 89-215 was purified by the same method as used for 89-205 in Example 15.
Using human-derived bone marrow mesenchymal stem cells, each fragment was examined by the same migration assay performed on mouse-derived bone marrow mesenchymal stem cells (MSC-1) as described above. The fragments were used at a final concentration of 2 μM. The human-derived bone marrow mesenchymal stem cells used were hMSC (human Mesenchymal Stem Cell, Takara) at fourth passage. The growth medium used was a mesenchymal stem cell growth medium (MF medium, TOYOBO). The cells were cultured in an incubator under 5% CO2 at 37° C. The medium was changed with a fresh medium every two to four days. The cells were passaged when they reached 80% confluency.

[3] = human HMGB1 fragments produced in E. coli, 2 μM, FIG. 18B
[4] = human HMGB1 fragments produced in E. coli, 2 μM
[5] = human HMGB1 fragments 89-215, 89-205, 89-195, 89-185 and their Q column fractions, E. coli, 2 μM, FIGS. 19B and 19D
[6] = human HMGB1 fragments 2-215, 2-205, 2-195, 2-185 produced in E. coli, 2 μM, FIG. 21A

45-84: peptide of positions 45 to 84 of mouse HMGB1, produced using HEK293 (CSERWKTMSAKEKGKFEDMAKADKARYEREMKTYIPPKGE; UniProt P63158 45-84, looked up, fragment)
migration-promoting activity [1, 3]: showed migration-promoting activity on bone marrow mesenchymal stem cells
migration-promoting activity per equal mass, 2-215 taken as 1 [1, 4]: 8.1 times
migration-promoting activity per molar concentration, 2-215 taken as 1 [1, 4]: 2.04 times
migration-promoting activity ([1]; protein and peptides produced using HEK293 (mouse HMGB1), 50 μg/ml, 4 h, FIG. 2A): showed migration-promoting activity
migration-promoting activity [2]: greater than human HMGB1 fragment (2-215)

2-44: human HMGB1 fragment, positions 2 to 44, produced in E. coli (GKGDPKKPRGKMSSYAFFVQTCREEHKKKHPDASVNFSEFSKK; UniProt P09429 2-44, looked up, fragment)
migration-promoting activity [1, 3]: showed migration-promoting activity on bone marrow mesenchymal stem cells
migration-promoting activity per equal mass, 2-215 taken as 1 [1, 4]: 7.1 times
migration-promoting activity per molar concentration, 2-215 taken as 1 [1, 4]: 1.82 times
migration-promoting activity [2]: greater than human HMGB1 fragment (2-215)

B1: 89-205: human HMGB1 fragment, positions 89 to 205, produced in E. coli (protein, UniProt P09429 89-205, looked up, fragment)
chain: FKDPNAPKRPPSAFFLFCSEYRPKIKGEHPGLSIGDVAKKLGEMWNNTAADDKQPYEKKAAKLKEKYEKDIAAYRAKGKPDAAKKGVVKAEKSKKKKEEEEDEEDEEDEEEEEDEED
migration-promoting activity [1, 5]: weak migration-promoting activity

B2: 2-84: human HMGB1 fragment, positions 2 to 84, produced in E. coli (protein, UniProt P09429 2-84, looked up, fragment)
chain: GKGDPKKPRGKMSSYAFFVQTCREEHKKKHPDASVNFSEFSKKCSERWKTMSAKEKGKFEDMAKADKARYEREMKTYIPPKGE
migration-promoting activity ([1]; fragment 2-84 and fusions with acidic tail fragments, produced in E. coli, FIG. 21D): exhibited migration-promoting activity
migration-promoting activity [1, 3]: showed migration-promoting activity on bone marrow mesenchymal stem cells
migration-promoting activity per equal mass, 2-215 taken as 1 [1, 4]: 5.5 times
migration-promoting activity per molar concentration, 2-215 taken as 1 [1, 4]: 2.37 times
migration-promoting activity [2]: greater than human HMGB1 fragment (2-215)

B3: 2-170: human HMGB1 fragment, positions 2 to 170, produced in E. coli (protein, UniProt P09429 2-170, looked up, fragment)
chain: GKGDPKKPRGKMSSYAFFVQTCREEHKKKHPDASVNFSEFSKKCSERWKTMSAKEKGKFEDMAKADKARYEREMKTYIPPKGETKKKFKDPNAPKRPPSAFFLFCSEYRPKIKGEHPGLSIGDVAKKLGEMWNNTAADDKQPYEKKAAKLKEKYEKDIAAYRAKGKPDA
migration-promoting activity [1, 3]: showed migration-promoting activity on bone marrow mesenchymal stem cells

B4: 89-195: human HMGB1 fragment, positions 89 to 195, produced in E. coli (protein, UniProt P09429 89-195, looked up, fragment)
chain: FKDPNAPKRPPSAFFLFCSEYRPKIKGEHPGLSIGDVAKKLGEMWNNTAADDKQPYEKKAAKLKEKYEKDIAAYRAKGKPDAAKKGVVKAEKSKKKKEEEEDEEDEE
migration-promoting activity [1, 5]: stronger activity than any fragments between positions 89 and 215
migration-promoting activity [2]: exhibited stronger activity

B5: 89-215: human HMGB1 fragment, positions 89 to 215, produced in E. coli (protein, UniProt P09429 89-215, looked up, fragment)
chain: FKDPNAPKRPPSAFFLFCSEYRPKIKGEHPGLSIGDVAKKLGEMWNNTAADDKQPYEKKAAKLKEKYEKDIAAYRAKGKPDAAKKGVVKAEKSKKKKEEEEDEEDEEDEEEEEDEEDEDEEEDDDDE
migration-promoting activity [1, 5]: weak migration-promoting activity

B6: 2-81: human HMGB1 fragment, positions 2 to 81, produced in E. coli (protein, UniProt P09429 2-81, looked up, fragment)
chain: GKGDPKKPRGKMSSYAFFVQTCREEHKKKHPDASVNFSEFSKKCSERWKTMSAKEKGKFEDMAKADKARYEREMKTYIPP
migration-promoting activity [1, 3]: showed migration-promoting activity on bone marrow mesenchymal stem cells

B7: 2-185: human HMGB1 fragment, amino acids of positions 2 to 185, produced in E. coli (protein, UniProt P09429 2-185, looked up, fragment)
chain: GKGDPKKPRGKMSSYAFFVQTCREEHKKKHPDASVNFSEFSKKCSERWKTMSAKEKGKFEDMAKADKARYEREMKTYIPPKGETKKKFKDPNAPKRPPSAFFLFCSEYRPKIKGEHPGLSIGDVAKKLGEMWNNTAADDKQPYEKKAAKLKEKYEKDIAAYRAKGKPDAAKKGVVKAEKSKKKK
migration-promoting activity [1, 6]: stronger migration-promoting activity than fragments 2-215 and 2-205

B8: 2-70: human HMGB1 fragment, positions 2 to 70, produced in E. coli (protein, UniProt P09429 2-70, looked up, fragment)
chain: GKGDPKKPRGKMSSYAFFVQTCREEHKKKHPDASVNFSEFSKKCSERWKTMSAKEKGKFEDMAKADKAR
migration-promoting activity [1, 3]: showed migration-promoting activity on bone marrow mesenchymal stem cells

B9: 2-195: human HMGB1 fragment, amino acids of positions 2 to 195, produced in E. coli (protein, UniProt P09429 2-195, looked up, fragment)
chain: GKGDPKKPRGKMSSYAFFVQTCREEHKKKHPDASVNFSEFSKKCSERWKTMSAKEKGKFEDMAKADKARYEREMKTYIPPKGETKKKFKDPNAPKRPPSAFFLFCSEYRPKIKGEHPGLSIGDVAKKLGEMWNNTAADDKQPYEKKAAKLKEKYEKDIAAYRAKGKPDAAKKGVVKAEKSKKKKEEEEDEEDEE
migration-promoting activity [1, 6]: stronger migration-promoting activity than fragments 2-215 and 2-205

B10: 93-215: human HMGB1 fragment, positions 93 to 215, produced in E. coli (protein, UniProt P09429 93-215, looked up, fragment)
chain: NAPKRPPSAFFLFCSEYRPKIKGEHPGLSIGDVAKKLGEMWNNTAADDKQPYEKKAAKLKEKYEKDIAAYRAKGKPDAAKKGVVKAEKSKKKKEEEEDEEDEEDEEEEEDEEDEDEEEDDDDE
migration-promoting activity [1, 3]: showed migration-promoting activity on bone marrow mesenchymal stem cells
